Source: patent publication US20100150916A1 (UNIVERSITAET STUTTGART, published 2010)

Legend:
[1] = molecular target: T1, TNFR2-Fas chimeric receptor (TNFR2-ED and Fas) on mouse embryonic fibroblasts (UniProt P20333 23-257; P25445 191-335); assay: indirect immunofluorescence flow cytometry on transfected mouse embryonic fibroblasts
T1 construct: extracellular domain;domain: cytoplasmic domain; Stably expressed on mouse embryonic fibroblasts
T1 sequence (looked up): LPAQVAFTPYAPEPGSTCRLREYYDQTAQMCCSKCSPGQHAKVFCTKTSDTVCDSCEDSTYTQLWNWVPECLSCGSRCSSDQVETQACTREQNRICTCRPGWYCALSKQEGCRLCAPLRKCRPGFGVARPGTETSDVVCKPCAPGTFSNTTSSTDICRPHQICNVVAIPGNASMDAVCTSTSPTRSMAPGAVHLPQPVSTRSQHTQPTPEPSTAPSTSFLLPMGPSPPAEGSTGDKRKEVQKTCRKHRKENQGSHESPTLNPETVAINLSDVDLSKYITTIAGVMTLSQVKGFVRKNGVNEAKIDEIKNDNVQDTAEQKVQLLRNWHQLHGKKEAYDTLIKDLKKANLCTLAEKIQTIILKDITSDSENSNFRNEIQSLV
Protocol: These transfectants were incubated on ice for two hours with 2.5 μg/ml of IZI-06.1-Fab (A-C, E, white histograms), the TNFR1-specific antibody mAb225 (D and F, white histograms), the TNFR2-specific antibody 80M2 (B, white+bold histogram) or were only treated with secondary antibodies as control (gray histograms). The incubation buffer was PBA (PBS+0.05% bovine serum albumin+0.02% NaN3). Cells were incubated with FITC-labeled secondary antibodies (80M2 and mAb225: Goat anti-murine IgG; IZI-06.1 Fab: Goat anti-HIS-tag) and cells were analyzed by flow cytometry. Cells were gated for viable cells and total fluorescence intensities (MnX) are given for each antibody. (Con=control values).
A His-tag positive IZI-06.1-Fab is used to determine specificity of TNFR1 binding or TNFR1-Fas binding, respectively as well as for characterization of the epitope recognized by the antibody derivative. […] This construct, however, is readily detected by another TNFR1-specific mab, mab225 (FIG. 7D).

[2] = molecular target: T2, TNFR1-Fas chimeric receptor (extracellular domain of TNFR1 and cytoplasmic domain of death receptor Fas) on … (human, UniProt P19438 30-211; P25445 191-335); assay: saturation binding of 125I-labelled Fab to TNFR1-Fas positive mouse fibroblasts on ice, one-site hyperbola and Scatchard plot
T2 construct: extracellular domain;domain: cytoplasmic domain; Stably expressed on mouse embryonic fibroblasts; also called TNFR1-Fas chimera
T2 sequence (looked up): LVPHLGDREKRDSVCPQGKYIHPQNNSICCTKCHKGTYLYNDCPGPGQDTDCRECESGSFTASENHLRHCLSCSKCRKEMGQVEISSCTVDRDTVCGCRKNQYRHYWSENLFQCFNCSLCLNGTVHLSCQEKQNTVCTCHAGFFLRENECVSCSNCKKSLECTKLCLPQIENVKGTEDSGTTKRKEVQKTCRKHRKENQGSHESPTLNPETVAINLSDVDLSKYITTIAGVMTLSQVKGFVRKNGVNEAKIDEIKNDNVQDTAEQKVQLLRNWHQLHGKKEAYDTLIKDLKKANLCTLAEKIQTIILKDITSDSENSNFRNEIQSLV
Protocol: Nonspecific binding has been subtracted.
To determine the affinity (KD value) of IZI-06.1 Fab, 200.000 TNFR1-Fas positive cells are incubated on ice for three hours with increasing concentrations of labelled IZI-06.1 (2.5-50 ng in a total volume of 150 μl). As binding buffer, phosphate buffered saline+2% fetal calf serum+0.02% NaN₃ is used. Non-specific binding is determined by co-incubating cells with the 180-fold respective concentration of unlabelled IZI-06.1. Bound ¹²⁵I-Fab is determined with a gamma-counter and resulting data is used to fit a one-site binding hyperbola that contains the saturation binding constant KD: […]

binding result [1]: no binding (tested: 2.5 µg/ml)
B1: IZI-06.1 Fab (Fab, V domains shown)
VH: QVQLVQSGAEVKKPGSSVKVSCKASGYTFTDFYINWVRQAPGQGLEWIGEIYPYSGHAYYNEKFKARVTITADKSTSTAYMELSSLRSEDTAVYYCARWDFLDYWGQGTTVTVSS
VL: DIVMTQSPLSLPVTPGEPASISCRSSQSLLHSNGNTYLHWYLQKPGQSPQLLIYTVSNRFSGVPDRFSGSGSGTDFTLKISRVEAEDVGVYYCSQSTHVPYTFGGGTKVEIKR
modifications: 125I-labelled (chloramine T method) in the saturation binding study
notes: Fab expressed in the E. coli periplasm; the pelB leader is removed; also called humanized H398-Fab; Fab IZI-06.1; not shown: CH1 domain of the human immunoglobulin gamma1 heavy chain
Kd [2]: 0.778 nM
